Reference: publication PMC2615620 (Nucleic Acids Research, 2008)
Blank lines part the entries; values can stand above or below the binder they belong to.

Molecular target: T1, Snu17 of the RES complex purified from yeast (S. cerevisiae (endogenous in the …, UniProt P40565 1-148))
T1 sequence (looked up): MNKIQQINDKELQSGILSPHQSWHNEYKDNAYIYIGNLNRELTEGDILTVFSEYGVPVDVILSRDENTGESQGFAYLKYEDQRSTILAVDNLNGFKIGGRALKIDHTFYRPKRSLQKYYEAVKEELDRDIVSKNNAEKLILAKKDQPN
Test: SEC

- stoichiometry N: 1
B1: Bud13 of the RES complex purified from yeast (natural protein, UniProt P46947 1-266, looked up)
chain: MALHQYLSETYGPTKPKNKTKKKKKESKSDANSDKTSLIVKERLSTLQQEQEKSGVASFSKFDKQKSKNIWKNLETNELSHAITHPSASSITGNESKNDLKEIRAQEPLVTVADKSKTRKTIYRDAQGHKIQEDSKIDDSSFSRSKYEDEKAAEREQYLKNLNMGDVQKLGINVDAHDKKKNQTASSLTIEDPAITFTHDKERTVKTSLLGRKLYDKPAPENRFAIMPGSRWDGVHRSNGFEEKWFAKQNEINEKKVQSYTLQEDY

- stoichiometry N: 1
B2: Pml1 of the RES complex purified from yeast (natural protein, UniProt Q07930 1-204, looked up)
chain: MFHRRKRPYNTRNYGHDDKKFKSQYIDIMPDFSPSGLLELESNNKEGIALKHVEPQDAISPDNYMDMLGLEARDRTMYELVIYRKNDKDKGPWKRYDLNGRSCYLVGRELGHSLDTDLDDRTEIVVADIGIPEETSSKQHCVIQFRNVRGILKCYVMDLDSSNGTCLNNVVIPGARYIELRSGDVLTLSEFEEDNDYELIFMNV
